Results from PMC5564220.

Legend:
[1] = molecular target: Rvb1ΔDII/Rvb2ΔDII complex (S. cerevisiae) (UniProt Q03940); assay: native MS
[2] = molecular target: Rvb1/his-Rvb2 complex (S. cerevisiae) (UniProt Q03940); assay: native MS

Rvb1ΔDII/Rvb2ΔDII complex, sequence (Q03940 whole entry, stated change not applied): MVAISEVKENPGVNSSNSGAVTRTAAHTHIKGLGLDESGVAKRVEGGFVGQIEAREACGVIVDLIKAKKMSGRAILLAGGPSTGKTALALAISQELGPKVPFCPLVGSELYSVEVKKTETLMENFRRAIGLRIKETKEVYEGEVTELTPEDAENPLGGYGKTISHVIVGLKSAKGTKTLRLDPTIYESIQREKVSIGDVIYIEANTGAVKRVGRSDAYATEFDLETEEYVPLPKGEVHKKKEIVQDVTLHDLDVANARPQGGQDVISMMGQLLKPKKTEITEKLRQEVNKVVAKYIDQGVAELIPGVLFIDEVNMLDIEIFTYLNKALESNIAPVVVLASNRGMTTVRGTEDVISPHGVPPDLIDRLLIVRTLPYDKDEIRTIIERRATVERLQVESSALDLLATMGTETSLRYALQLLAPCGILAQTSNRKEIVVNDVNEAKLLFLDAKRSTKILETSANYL
Rvb1ΔDII/Rvb2ΔDII complex, sequence (Q12464 whole entry, stated change not applied): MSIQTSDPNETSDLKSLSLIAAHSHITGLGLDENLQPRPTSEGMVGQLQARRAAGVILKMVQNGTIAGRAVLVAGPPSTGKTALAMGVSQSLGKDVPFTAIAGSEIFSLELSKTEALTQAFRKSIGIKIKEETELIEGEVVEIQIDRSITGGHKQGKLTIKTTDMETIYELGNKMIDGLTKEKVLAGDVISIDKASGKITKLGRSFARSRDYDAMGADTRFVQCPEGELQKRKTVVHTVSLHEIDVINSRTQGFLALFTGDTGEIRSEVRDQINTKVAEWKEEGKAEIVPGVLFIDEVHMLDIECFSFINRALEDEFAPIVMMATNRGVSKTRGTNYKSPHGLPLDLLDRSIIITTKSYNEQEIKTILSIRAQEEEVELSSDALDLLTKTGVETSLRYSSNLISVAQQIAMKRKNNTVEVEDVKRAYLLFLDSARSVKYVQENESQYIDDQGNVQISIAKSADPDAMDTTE

Substance	percent of dodecamer in the population [1] [%]	percent of hexamers in the population [2] [%]	percent of the dodecamer dissociated into hexamers [2] [%]
Rvb1ΔDII/Rvb2ΔDII complex (from UniProt Q03940 1-463; Q12464 1-471)	3	–	–
Rvb1/his-Rvb2 complex (from UniProt Q03940 1-463; Q12464 1-471)	–	0	14
